# Measurements: patent US20250000976A1 (NATIONAL RESEARCH COUNCIL OF CANADA, published 2025)
# T1: BCMA_B5x Gln38_Ala54 (human, UniProt Q02223)
# T1 construct: limits given in the sample name
# T1 yeast-displayed fusion (looked up): QRYCNASVTNSVKGTNA
# T2: BCMA_B13x Gly6 (C8S)_Pro23 (human, UniProt Q02223)
# T2 construct: limits and substitution as printed in the sample name
# T2 yeast-displayed fusion (looked up): GQSSQNEYFDSLLHACIP
# T3: hBCMA-ECD-FC5VHH (human, UniProt Q02223 1-54, biotinylated in vivo ; biotinylated in vivo on the tag of the carrier part, which is not in the letters)
# T3 construct: Made in HEK-293 cells, monomeric SEC fraction; The methods say about 500 RU captured on an SA chip; the results say immobilised on a CM5 chip; also called hBCMA-FC5; human BCMA-ECD; not shown: FC5 VHH carrier, any linker, and the His and biotinylation tags
# T3 sequence: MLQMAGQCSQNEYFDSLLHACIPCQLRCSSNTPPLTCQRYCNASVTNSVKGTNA
# T4: BCMA_B18x Ile22_Tyr40 (C37S) (human, UniProt Q02223)
# T4 construct: limits and substitution as printed in the sample name
# T4 yeast-displayed fusion (looked up): IPCQLRCSSNTPPLTSQRY
# T5: BCMA_B9x Met1_Asp15 (human, UniProt Q02223)
# T5 construct: limits given in the sample name
# T5 yeast-displayed fusion (looked up): MLQMAGQCSQNEYFD
# T6: human BCMA on target cells (Raji, Ramos, Jeko-1, RPMI8226) (human, UniProt Q02223 1-184)
# T6 construct: also called TNFRSF17; BCMA-positive target cells
# T6 sequence: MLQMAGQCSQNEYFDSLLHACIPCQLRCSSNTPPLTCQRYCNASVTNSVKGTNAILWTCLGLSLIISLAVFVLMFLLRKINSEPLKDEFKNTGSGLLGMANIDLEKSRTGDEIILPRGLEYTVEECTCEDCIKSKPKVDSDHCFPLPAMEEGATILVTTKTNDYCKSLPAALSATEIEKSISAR
# Key:
# [1] = biological target: T1, BCMA_B5x Gln38_Ala54; experiment: yeast cell ELISA, sample BCMA_B5x Gln38_Ala54
# Method: (§1) The YSD vector (pPNL6) was from The Pacific Northwest National Laboratory, USA. […] The HRP activity was assayed with substrate TMB (tetramethyl benzidine) according to the manufacture's conditions and read at OD₄₅₀.
# (§2) The assays were performed as described in the Materials and Method, and OD₄₅₀ was measured. Note that OD₄₅₀ reads equal or less than 0.100 were scored as zero for clarity.
# [2] = biological target: T2, BCMA_B13x Gly6 (C8S)_Pro23; experiment: yeast cell ELISA, sample BCMA_B13x Gly6 (C8S)_Pro23
# Method: as §1, §2
# [3] = biological target: T3, hBCMA-ECD-FC5VHH; experiment: SPR (Biacore T200), VHH 20-500 nM over BCMA-ECD surface, 25 C
# Method: (§3) For surface Plasmon resonance, 15 selected VHHs were passed though size exclusion columns, Superdex 75 (GE Healthcare), respectively, in 10 mM HEPES, pH 7.4, containing 150 mM NaCl, 3 mM EDTA, monomeric sdAb fractions were collected and protein concentrations were determined by measuring absorbance at 280 nm (A280). Analysis were performed with Biacore T200 instrument (GE Healthcare). All measurements were carried out at 25° C. in 10 mM HEPES, pH 7.4, containing 150 mM NaCl, 3 mM EDTA and 0.005% surfactant P20 (GE Healthcare). Approximately 500 RUs of the recombinant monomeric BCMA-ECD (obtained after SEC purification of the BCMA-ECD-FC5VHH) were captured on SA sensor chip (GE Healthcare) at a flow rate of 5 uL/min. Various concentration of the monomeric VHHs (20-500 nM) were injected over BCMA-ECD surface, respectively using an SA surface as a reference at a flow rate of 40 μL/min. Surfaces were generated by washing with running buffer. Data were analysed with BIAevaluation 4.1 software.
# (§4) The monomeric fraction of all 15 VHHs were used for SPR experiment where the human BCMA-ECD or mouse BCMA was immobilized onto the CM5 dextran chip and various VHH concentration (20-500 nM) were passed over the sensor chip.
# [4] = biological target: T4, BCMA_B18x Ile22_Tyr40 (C37S); experiment: yeast cell ELISA, sample BCMA_B18x Ile22_Tyr40 (C37S)
# Method: as §1, §2
# [5] = biological target: T5, BCMA_B9x Met1_Asp15; experiment: yeast cell ELISA, sample BCMA_B9x Met1_Asp15
# Method: as §1, §2
# [6] = biological target: T6, human BCMA on target cells (Raji, …); experiment: flow cytometry on RPMI8226 cells (BCMA-high); VHH detected with AlexaFluor647 anti-VHH antibodies
# Method: Purified VHH were used to assess the target specificity of the sdBCMA Ab by flow cytometry. The highly BCMA expressing human myeloma cell line RPM18226, the BCMA-low human Burkitt's lymphoma cell line Raji, and the BCMA-negative Jurkat human T cell leukemia cell line were incubated with 5 fold dilution of biotin labelled sdBCMA VHH from 7.5-0.06 μg/mL. The binding of the BCMA-targeted VHH to cell surface BCMA was detected by flow cytometry using a mixture of two broad reactivity mouse anti-VHH antibodies conjugated with AlexaFluor647.
# [7] = biological target: T7, mBCMA-ECD-FC5VHH (mouse, UniProt O88472 1-49, biotinylated in vivo ; biotinylated in vivo on the tag of the carrier part, which is not in the letters); experiment: SPR (Biacore T200), VHH over mouse BCMA-ECD surface, 25 C
# T7 construct: also called mouse BCMA; murine BCMA ECD; not shown: FC5 VHH carrier, any linker, and the His and biotinylation tags
# [8] = biological target: T3, hBCMA-ECD-FC5VHH; experiment: SPR, 1:1 binding model
# Method: as §3, §4
# T7 sequence (O88472 1-49 limits assumed): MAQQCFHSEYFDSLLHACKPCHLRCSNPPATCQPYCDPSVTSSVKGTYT
Binder,binding result [1],binding result [2],Kd [3],koff [3],kon [3],binding result [4],binding result [5],EC50 (read off the curve) [6],Kd [7],koff [7],kon [7],Kd [8]
"hBCMA-VcMRo3 (V3) (VHH, single biotin on the C-terminal AviTag, also called hBCMA-V3; not shown: C-terminal His tag and AviTag biotinylation signal from pMRO vector) VHH: EVQLEQSGGGLVQTGDSLRLTCTIPGRASNHFVMAWFRRAPGKEREFVATRVWSGGSPYYSDSVKGRFAIAIDNAKNTAYLQMNSLKPEDTAVYYCAATKDIMSRSYDYWGLGTQVTVSS",no binding,,0.564 nM,0.000239 s⁻¹,424000 M⁻¹ s⁻¹,no binding,no binding,~2 nM,,,,
"hBCMA-A6 (VHH, single biotin on the C-terminal AviTag, also called VHH-A6; not shown: C-terminal His tag and AviTag biotinylation signal from pMRO vector) VHH: QVQLVESGGGLVQPGGSLRLSCVASGSIFDAYNMGWYRQAPGKQRELVAAISSAGTTFYRDSVKGRFTVSRNNAKNTMYLQMDRLRPEDTAVYDCNGAPWGDAPVKVEDWGQGTQVTVSS",no binding,no binding,4.62 nM,0.0109 s⁻¹,2.36e+06 M⁻¹ s⁻¹,no binding,no binding,,,,,4 nM
"hBCMA-VcMRo8(VF7/VF8) (VHH, single biotin on the C-terminal AviTag, also called V8; hBCMA-V8; not shown: C-terminal His tag and AviTag biotinylation signal from pMRO vector) VHH: QVQLVESGGGLVQPGGSLRLSCAASGTIFSRNALAWFRQAPGKQRELVAHITIGGTTVYKDSVKGRFTISRDNAKNTVYLQMDALKPEDTAVYYCNADPEGSWNWVRRGDYWGQGTQVTVS",no binding,no binding,0.0846 nM,0.00125 s⁻¹,1.48e+07 M⁻¹ s⁻¹,no binding,no binding,,,,,
"hBCMA-H4 (VHH, single biotin on the C-terminal AviTag, also called VHH-H4; not shown: C-terminal His tag and AviTag biotinylation signal from pMRO vector) VHH: QVQLVESGGGLVQPGGSLRLSCAASGDSFGAYAMGWYRQAPGKQRELVAAISSAGNTFYRDSVKGRFTVSRNNAKNAMYLQMDRLKPEDTAVYQCNGAPWADEPVKVWNWGLGTQVTVSS",no binding,no binding,0.379 nM,0.000509 s⁻¹,1.34e+06 M⁻¹ s⁻¹,no binding,no binding,,,,,

# These reach a lower Kd [3]. Values come first.
binding result [1],binding result [2],Kd [3],koff [3],kon [3],binding result [4],binding result [5],EC50 (read off the curve) [6],Kd [7],koff [7],kon [7],Kd [8],Binder
no binding,no binding,0.0801 nM,0.000343 s⁻¹,4.28e+06 M⁻¹ s⁻¹,no binding,no binding,,,,,,"hBCMA-H2 (VHH, single biotin on the C-terminal AviTag, also called VHH-H2; not shown: C-terminal His tag and AviTag biotinylation signal from pMRO vector) VHH: QVKAEESGGGLVRPGDSLRLTCTISGRTSNNFVMAWFRRTPGKEREYVATRVWSGSTPYYHDSVKGRFTISIDDDKNTAYLQMNSLKPEDTAVYYCAATKDIMSRSYDYWGLGTQVTVSS"
no binding,,0.0462 nM,0.000179 s⁻¹,3.88e+06 M⁻¹ s⁻¹,no binding,no binding,~0.9 nM,67.5 nM,0.0514 s⁻¹,762000 M⁻¹ s⁻¹,0.0462 nM,"hBCMA-E7 (VHH, single biotin on the C-terminal AviTag, Llama VHH made in E. coli BL21(DE3), IMAC purified, monomeric SEC fraction used; also called VHH-E7; VHH # 1-B1; not shown: C-terminal His tag and AviTag biotinylation signal from pMRO vector) VHH: QVQLVESGGGLVQTGDSLRLACTISGRATDHFVMAWFRRAPGKEREYVATRVWSGGSPYYLDSVKGRFAIAIDNAKNTAYLQMNNLKPEDTAVYYCAATKDIMSRSYDYWGLGTQVTVSS"
